This passage reports Bmax results from patent publication US20190233512A1 (SUTRO BIOPHARMA, published 2019).

Residue numbers refer to the chain shown, from its start.

The chains are these.
B1: SRP1848-C03 (antibody, V domains shown)
VH: EVQLVESGGGLVQPGGSLRLSCAASGFNIGVYSIHWVRQAPGKGLEWVGEIYPIDGNTDYADSVKGRFTISADTSKNTAYLQMNSLRAEDTAVYYCARGSWAWRSGYSYYLDYWGQGTLVTVSS
VL: not shown
notes: VH/VL only; Fc-bearing IgG format with trastuzumab LC, HIS/FLAG-tagged, cell-free expressed; constant regions not tied; also called Antibody 19
B2: SRP1848-A09 (antibody, V domains shown)
VH: EVQLVESGGGLVQPGGSLRLSCAASGFNIRKQSIHWVRQAPGKGLEWVGSIFPNDGTTDYADSVKGRFTISADTSKNTAYLQVNSLRAEDTAVYYCARGSWFWRSGYGYFLEYWGQGTLVTVSS
VL: not shown
notes: VH/VL only; Fc-bearing IgG format with trastuzumab LC, HIS/FLAG-tagged, cell-free expressed; constant regions not tied; also called Antibody 7
B3: SRP1848-B10 (antibody, V domains shown)
VH: B1 VH with I29T, G30T, V31T, Y32K, I54R, N57I, S100G, A102H
VL: not shown
notes: VH/VL only; Fc-bearing IgG format with trastuzumab LC, HIS/FLAG-tagged, cell-free expressed; constant regions not tied; also called Antibody 16
B4: SRP1848-B06 (antibody, V domains shown)
VH: EVQLVESGGGLVQPGGSLRLSCAASGFNISNYYIHWVRQAPGKGLEWVGGITPIDGYTDYADSVKGRFTISADTSKNTAYLQMNSLRAEDTAVYYCARGFWSWPSGYGYYQDYWGQGTLVTVSS
VL: not shown
notes: VH/VL only; Fc-bearing IgG format with trastuzumab LC, HIS/FLAG-tagged, cell-free expressed; constant regions not tied; also called Antibody 13
B5: SRP1848-B11 (antibody, V domains shown)
VH: B1 VH with V31N, Y32N, E50D, Y52S, N57F, A102S, S105A, S108G
VL: not shown
notes: VH/VL only; Fc-bearing IgG format with trastuzumab LC, HIS/FLAG-tagged, cell-free expressed; constant regions not tied; also called Antibody 17
B6: SRP1848-F06 (antibody, V domains shown)
VH: B4 VH with N31L, Y32S, T52S, Y57N, S102A, P104R, Q111L
VL: not shown
notes: VH/VL only; Fc-bearing IgG format with trastuzumab LC, HIS/FLAG-tagged, cell-free expressed; constant regions not tied; also called Antibody 41
B7: SRP1848-C07 (antibody, V domains shown)
VH: B4 VH with S30R, N31K, Y33S, G50D, T52F, Y57I, V64M, F100S, S105A
VL: not shown
notes: VH/VL only; Fc-bearing IgG format with trastuzumab LC, HIS/FLAG-tagged, cell-free expressed; constant regions not tied; also called Antibody 22
B8: SRP1848-B09 (antibody, V domains shown)
VH: B4 VH with S25G, S30T, I54V, S63R, F100A, P104R, Q111M
VL: not shown
notes: VH/VL only; Fc-bearing IgG format with trastuzumab LC, HIS/FLAG-tagged, cell-free expressed; constant regions not tied; also called Antibody 15
B9: SRP1848-C05 (antibody, V domains shown)
VH: B1 VH with G30R, V31K, E50D, Y52F, N57I, T58N, A102S, R104K, S105A, S108G
VL: not shown
notes: VH/VL only; Fc-bearing IgG format with trastuzumab LC, HIS/FLAG-tagged, cell-free expressed; constant regions not tied; also called Antibody 21
B10: SRP1848-B05 (antibody, V domains shown)
VH: B4 VH with T52S, V64M, N84S, F100S, S102F, P104Q, Q111L
VL: not shown
notes: VH/VL only; Fc-bearing IgG format with trastuzumab LC, HIS/FLAG-tagged, cell-free expressed; constant regions not tied; also called Antibody 12
B11: SRP1848-A07 (antibody, V domains shown)
VH: B1 VH with V31Y, Y32H, Y52F, I54V, N57T, Q82H, S100F, S108G
VL: not shown
notes: VH/VL only; Fc-bearing IgG format with trastuzumab LC, HIS/FLAG-tagged, cell-free expressed; constant regions not tied; also called Antibody 5
B12: SRP1848-B07 (antibody, V domains shown)
VH: B4 VH with N31R, Y32F, T52S, I54Y, Y57F, F100S, S105A
VL: not shown
notes: VH/VL only; Fc-bearing IgG format with trastuzumab LC, HIS/FLAG-tagged, cell-free expressed; constant regions not tied; also called Antibody 14
B13: SRP1848-E05 (antibody, V domains shown)
VH: B4 VH with L20V, S30G, N31V, I54N, S102A, P104R, Q111L
VL: not shown
notes: VH/VL only; Fc-bearing IgG format with trastuzumab LC, HIS/FLAG-tagged, cell-free expressed; constant regions not tied; also called Antibody 34
B14: SRP1848-E01 (antibody, V domains shown)
VH: B4 VH with S30T, Y32K, I54F, Y57F, F100S, S105A
VL: not shown
notes: VH/VL only; Fc-bearing IgG format with trastuzumab LC, HIS/FLAG-tagged, cell-free expressed; constant regions not tied; also called Antibody 31

For the first test, the target named is T1, Cynomolgus folate receptor alpha (cynomolgus monkey, UniProt P15328 25-234 (human entry)).
T1 construct: Stably expressed on CHO cells (CHO-cFOLR1); also called cynomolgus FOLR1; CHO-cFOLR1
T1 sequence (P15328 other isoform, or with tags, fused parts or gaps limits assumed): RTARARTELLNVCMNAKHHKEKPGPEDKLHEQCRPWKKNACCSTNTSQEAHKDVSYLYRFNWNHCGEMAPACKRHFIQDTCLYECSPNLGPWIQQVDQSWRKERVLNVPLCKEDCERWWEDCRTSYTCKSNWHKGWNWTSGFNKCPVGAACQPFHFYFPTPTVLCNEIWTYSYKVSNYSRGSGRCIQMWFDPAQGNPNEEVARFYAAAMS
In words: FACS, CHO-cFOLR1 cells.
For the molecule B1, the Bmax came out at 25100 MFI.

B2 came in with a Bmax of 20200 MFI.

For B3, the Bmax stood at 21300 MFI.

Molecule B4 gave a Bmax of 26800 MFI.

For B5, the Bmax was 22900 MFI.

B6 registered a Bmax of 26500 MFI.

B7 displayed a Bmax of 18100 MFI.

B8 yielded a Bmax of 25200 MFI.

The molecule B9 yielded a Bmax of 15200 MFI.

Turning to B10, the Bmax amounted to 21900 MFI.

Molecule B11 came in with a Bmax of 23600 MFI.

In turn, B12 gave a Bmax of 25500 MFI.

Turning to B13, the Bmax stood at 28200 MFI.

Molecule B14 registered a Bmax of 22400 MFI.

In the next test the target is T2, Human folate receptor alpha (hFOLR1) (human, UniProt P15328 25-234).
T2 construct: Stably expressed on CHO cells (CHO-hFOLR1) for flow cytometry; endogenous on FOLR1-positive KB and Igrov1 cells in the killing assay; also called human FOLR1; FolRα
T2 sequence (P15328 25-234 limits assumed): as the sequence (P15328 other isoform, or with tags, fused parts or gaps limits assumed) above, with T2I, R4W, K37R, R117Q, P146A, Y171H counted along it
In words: FACS, CHO-hFOLR1 cells. As for the experimental part: CHO cells were transfected to stably express human (CHO-hFOLR1), cynomolgus (CHO-cFOLR1), or mouse (CHO-mFOLR1) target molecule FOLR1 on the cell surface. Parental CHO cells were used as a negative control to determine background binding levels. Parental CHO and stably transfected CHO-hFOLR1, CHO-cFOLR1, and CHO-mFOLR1 cells were cultured in Ham's F-12: high glucose DMEM (50:50) (Corning, Cellgro-Mediatech) supplemented with 10% heat-inactivated fetal bovine serum (Corning, Cellgro-Mediatech), 1% Penicillin/Streptomycin (Corning, Cellgro-Mediatech) and 2 mmol/L-glutamax (Life Technology).
A mixture of fluoresecent-labeled parental CHO cells and unlabeled CHO-hFOLRlcells were prepared as follows. Parental CHO cells were washed twice in PBS and incubated in PBS containing with 1 nM CellTrace™ Oregon Green488® (Life Technologies) at 37° C. for 30 minutes. Labeled parental CHO cells were then washed 2× with Ham's F-12 media and 2× with FACS buffer (PBS with 1% bovine serum albumin). Unlabeled CHO-hFOLR1 cells were similarly washed and prepared. Labeled parental CHO and unlabeled CHO-hFOLR1 cells were combined at 1:1 ratio and seeded at 50 μL per well (200,000 cells per well) in 96 well polypropylene plates. Cells were mixed with 50 μL of test antibodies (i.e., anti-FOLR1 variants) serially diluted in FACS buffer and incubated on ice for 60 mins. Cells were washed with FACS buffer and incubated on ice for 60 mins with 100 μL FACS buffer containing 2.5 μg/mL R-Phycoerythrin-conjugated goat anti-Human IgG (Jackson ImmunoResearch Laboratories, West Grove, Pa.). Cells were washed twice with FACS buffer, fixed in 2% paraformaldehyde in PBS (Santa Cruz Biotechnology; Dallas, Tex.) for 10 mins on ice in the dark, and analyzed using the BD LSR II Flow Cytometer (BD Biosciences; San Jose, Calif.). Data were analyzed using FlowJo® software (FlowJo, LLC; Ashland, Oreg.) to determine mean fluorescence intensities. Binding constants were calculated using the statistical software, GraphPad Prism (GraphPad Software; La Jolla, Calif.) using the nonlinear regression equation, one site-specific binding with Hill slope. Secondary antibody alone was used as a control, in addition to measuring non-specific antibody binding to CHO parental cells.
A general note: Flow cytometry measures light scatter and fluorescence of single cells or particles in a stream.
In turn, B1 displayed a Bmax of 29100 MFI.

B2 had a Bmax of 28900 MFI.

On to B3, for which the Bmax worked out at 28200 MFI.

In the case of B4, the Bmax came to 25100 MFI.

With B5, the Bmax was found to be 28400 MFI.

As for B6, the Bmax came out at 25600 MFI.

The molecule B7 yielded a Bmax of 28800 MFI.

Turning to B8, the Bmax stood at 25200 MFI.

Take B9: the Bmax amounted to 26800 MFI.

Consider B10, for which the Bmax turned out to be 24500 MFI.

In turn, B11 showed a Bmax of 29200 MFI.

In turn, B12 returned a Bmax of 25600 MFI.

For B13, the Bmax was 27300 MFI.

In the case of B14, the Bmax was 26400 MFI.

In the next test the target is T3, Murine folate receptor alpha (mouse, UniProt P35846 25-232).
T3 construct: Stably expressed on CHO cells (CHO-mFOLR1); also called mouse FOLR1; CHO-mFOLR1
T3 sequence (P35846 25-232 limits assumed): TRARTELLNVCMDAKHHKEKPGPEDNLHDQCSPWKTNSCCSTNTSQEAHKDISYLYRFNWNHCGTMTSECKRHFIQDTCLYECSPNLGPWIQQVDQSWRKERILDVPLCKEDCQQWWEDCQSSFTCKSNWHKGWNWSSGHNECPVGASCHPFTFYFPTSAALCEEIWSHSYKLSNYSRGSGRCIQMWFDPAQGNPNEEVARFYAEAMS
In words: FACS, CHO-mFOLR1 cells.
B1 yielded a Bmax of 3310 MFI.

Turning to B2, the Bmax was 7990 MFI.

Take B3: the Bmax turned out to be 2460 MFI.

B5: the Bmax is 1630 MFI.

In the case of B7, the Bmax came out at 3170 MFI.

On to B8, for which the Bmax was found to be 1420 MFI.

As to B9, the Bmax is 4130 MFI.

Molecule B11 gave a Bmax of 9650 MFI.
